According to the supplement of paper PMC10567573:
± gives the standard deviation.

Assay: protein stability index of a GFP-peptide fusion (GPS, HEK-293T) (PSI 1-6); higher = more stable
[1] = treatment: DMSO, c terminus: a fixed tail appended
[2] = treatment: MLN4924 1 uM, 8 h, c terminus: a fixed tail appended
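Also: 24-mer peptide tiles fused after GFP, lentivirally expressed, FACS-sorted into six equal bins by GFP/DsRed ratio, decoded by Illumina sequencing, PSI is the read-weighted mean bin number.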

| Sequence | protein stability index [1] | protein stability index [2] | protein stability index (treatment: DMSO, c terminus: native) | protein stability index (treatment: MLN4924 1 uM, 8 h, c terminus: native) |
| --- | --- | --- | --- | --- |
| EFVTLKAIALANSDSMHIEDVEAV [ESRRG] | 3.39 ± 0.38 | 3.31 ± 0.29 |  |  |
| GWAKHIPGFSTLSLADQMSLLQSA [ESRRG] | 2.31 ± 0.22 | 2.5 ± 0.16 |  |  |
| GRPGIVAWTLINLSFAAKQRELHS [DHCR7] | 2.81 ± 0.31 | 3.02 ± 1 |  |  |
| KVPESLVRSLRGEEPVPRERDRDP [LURAP1L] | 5.28 ± 0.13 | 5.25 ± 0.33 |  |  |
| QPQDRNQALGTHRPVNKLAELQCE [RASAL3] | 4.77 ± 0.37 | 4.88 ± 0.25 |  |  |
| PGPGGTMKRHSSRDAAGKPQRPRS [FCHO1] | 5.04 ± 0.16 | 5.12 ± 0.17 |  |  |
| PQAPPASRDEAALPELLLGALPVG [RETREG3] | 4.64 ± 0.087 | 4.67 ± 0.16 |  |  |
| QPILQIDNARLAADDFRTKYEHEL [KRT16] | 4.6 ± 0.2 | 4.31 ± 0.45 |  |  |
| GSCGQGRTIRHVYCKTSDGRVVPE [ADAMTSL2] | 3.66 ± 0.31 | 3.57 ± 0.58 |  |  |
| FKSFQYPLPWSECPVVRNGSVAVV [SLC6A17] | 2.07 ± 0.29 | 2.09 ± 0.56 |  |  |
| QSPGQPVQGGSEAWGPGTLAAAPE [TEX19] | 5.08 ± 0.37 | 5.11 ± 0.24 |  |  |
| NKTPGAPESSALQPPPQSSEGLVG [WAS] | 5.41 ± 0.35 | 5.3 ± 0.31 |  |  |
| GPEHATRLNGTAKGERRREPGGYD [DVL3] | 5.13 ± 0.26 | 5.18 ± 0.19 |  |  |
| EMEVMRRQLYAVNRRLRALEEQGA [FATE1] | 3.65 ± 0.29 | 3.68 ± 0.41 |  |  |
| KEAKTKYPNYEFISDNSISWSAGL [FUT8] | 2.52 ± 0.25 | 2.95 ± 0.23 |  |  |
| PVEEPEPKPDRLLVLKVLWNDFLM [SLC19A2] | 2.21 ± 0.2 | 2.17 ± 0.19 |  |  |
| KLDTKYPYVCHAELNAIMNKNSTD [DCTD] | 3.52 ± 0.18 | 3.42 ± 0.11 |  |  |
| QRELEIPEQQVDMHDMLLEELAPV [ZNF449] | 5.22 ± 0.26 | 5.12 ± 0.21 |  |  |
| KENPECPVLKRSSESMENINSGYE [KMT2E] | 5.13 ± 0.2 | 5.01 ± 0.23 |  |  |
| PVSKPGALRRSLSRSMSQEAQRG [TCAP] |  |  | 3.19 ± 0.23 | 3.2 ± 0.37 |
| TCVVPFDSEEEVIERANNVKYGLA [ALDH8A1] | 4.29 ± 0.33 | 4.41 ± 0.23 |  |  |
| DNHMSDKDESCYDNAEAAFSDDEE [INTS3] | 5.55 ± 0.18 | 5.29 ± 0.38 |  |  |
| GSGVIGRSWAMLFASGGFQVKLYD [CRYL1] | 2.33 ± 0.31 |  |  |  |
| LPDPREACGSSSYVASIVDGGESR [RBMY1A1] | 4.74 ± 0.24 | 4.64 ± 0.14 |  |  |
| SYAFGKFPTVVWTWWIMFLSTFSV [SOAT1] | 2.98 ± 0.57 | 2.97 ± 0.29 |  |  |
| LALKTPPRVLTLSERPLDFLDLER [MFF] | 2.96 ± 0.45 | 3.1 ± 0.21 |  |  |
| ASGQGPMCNVKAPLGSPSPRPRRA [ADAMTS4] | 4.88 ± 0.29 | 5.13 ± 0.15 |  |  |

| Sequence | protein stability index [1] | protein stability index [2] | protein stability index (treatment: DMSO, c terminus: native) | protein stability index (treatment: MLN4924 1 uM, 8 h, c terminus: native) |
| --- | --- | --- | --- | --- |
| TQQFKAEKLKEKLKMKEREEAWVK [PPP2R5C] | 3.26 ± 0.64 | 3.72 ± 0.62 |  |  |
| VGGYGTRLRPLTLSTPKPLVDFCN [GMPPB] | 2.41 ± 0.16 | 2.46 ± 0.14 |  |  |
| VLYLMMPIVNISEVLGPLCLMLLM [PHTF1] | 3.07 ± 0.62 | 2.67 ± 0.47 |  |  |
| LSSGMAVAGMPTAYDLSSVIASGS [CARM1] | 3.02 ± 0.22 | 2.9 ± 0.41 |  |  |
| AADIVNFLTVGSVLQMWHIVDKCT [ZBTB22] | 3.24 ± 0.88 | 3.65 ± 0.2 |  |  |
| DENREVLQTLLYFLSDVTAAVKEN [DLC1] | 2.14 ± 0.28 | 2.33 ± 0.19 |  |  |
| GLEAPRDLEAKEVTPRTALLTWTE [TNXB] | 3.22 ± 0.4 | 4.95 ± 0.29 |  |  |
| VCGKSFSRTTCLFLHLRTHTEERP [ZNF8] | 2.23 ± 0.56 | 1.93 ± 0.38 |  |  |
| NSLLEEETILHFFVQILLALHHVH [NEK8] | 2.38 ± 0.11 | 2.33 ± 0.35 |  |  |
| LYVVIPTRRSTAEAFQIVLSHLLG [SPNS1] | 2.72 ± 0.4 | 2.71 ± 0.33 |  |  |
| PPPPPPHNSGPPPPPARGRGAPPP [WASL] | 5.14 ± 0.2 | 5.19 ± 0.16 |  |  |
| LALPPGAEHWTKEHCGAVCFVKDN [WAS] | 3.35 ± 0.23 | 3.45 ± 0.59 |  |  |
| SPEQQFDRSVQRLLATRIAVYLMT [TMEM175] | 2.31 ± 0.51 | 2.43 ± 0.66 |  |  |
| YAATTTPFTPLHIKVKPKRVGIFL [TRIM39] | 2.52 ± 0.58 | 2.81 ± 1.1 |  |  |
| MKKGGIFSAEFLKVFIPSLFLSHV [BNIP3L] | 3 ± 1.1 | 2.51 ± 0.56 |  |  |
| QRMRVPEKLKVAPPNADLEQGFQE [MFF] | 4.82 ± 0.19 | 4.74 ± 0.092 |  |  |
| TENRYCVQLSQIQGLIGSVEEQLA [KRT17] | 3.1 ± 0.51 | 3.24 ± 0.22 |  |  |
| GDTLRTFSLVLVLDLSKPNDLWPT [DYNC2LI1] | 2.89 ± 0.37 | 2.82 ± 0.32 |  |  |
| AGNNEHCGNIKAPSLQAWNDAPCD [CD207] | 4.75 ± 0.33 | 4.71 ± 0.13 |  |  |
| LRLCRLWPRNPPSRLLGAAAGQRS [DNAJC4] | 2.75 ± 0.54 | 2.7 ± 0.39 |  |  |
| SATLRSFEGLMGTIKSKVSGGKRA [TPD52L3] | 3.51 ± 0.18 | 3.33 ± 0.56 |  |  |
| FYSNLILQHEERETRQKKLEVAME [STK38L] | 3.08 ± 0.2 | 3.08 ± 0.33 |  |  |
| NFSAAKSLLNKKADGVKPQTNSTK [CAMK2B] | 4.98 ± 0.22 | 4.85 ± 0.34 |  |  |
| VWTSPRRLVELAGQSLLKDEALAI [PRAME] | 3.36 ± 0.15 | 3.34 ± 0.21 |  |  |
| HFLENLDKSRKGELLKKSDLQKDF [PRIM1] | 3.52 ± 0.21 | 3.95 ± 0.37 |  |  |
| TVCGDLHGQLDDLIFIFYKNGLPS [PPEF2] | 2.87 ± 2.1 | 1.94 ± 0.41 |  |  |
| AIKCSPSLHVDDRERMELLEEAKK [RIPK4] | 5.12 ± 0.65 | 5.28 ± 0.33 |  |  |
